In US20060067886A1, “Gastrin receptor-avid peptide conjugates” (priority 1997, published 2006):

What was measured:
in vivo = settings: SCID, mouse, in vivo, iv, 4 uCi, total radioactivity, Avg % ID, Muscle
Protocol: In vivo pharmacokinetic studies in human tumor bearing SCID mice. […] The xenograft models were produced by bilateral flank inoculation of 5×10^6 cells (PC-3 or MDA-MB-231 cells) per site. Four to six weeks post inoculation, palpable tumors were observed. At this point, the mice were injected with 4 μCi of the complex in […] of isotonic saline via the tail vein. The mice were euthanized and tissues and organs were excised from the animals at selected times post-injection (p.i.), including 15 minutes, 30 minutes, 1 hour, 4 hours, 24 hours, 48 hours, and 72 hours p.i. Subsequently, the tissues and organs were weighed and counted in a NaI well counter and the percent injected dose (% ID) and % ID/g of each organ or tissue calculated.
The mice were injected with 4 μCi of the complex in 100 μL of isotonic saline via the tail vein. The mice were euthanized by cervical dislocation. Tissues and organs were excised from the animals following at 1 hour, 4 hour, and 24 hours post-injection (p.i.). Subsequently, the tissues and organs were weighed and counted in a NaI well counter and the percent injected dose (% ID) and % ID/g of each organ or tissue calculated.

[1] = tested on: PC-3 human tumor xenografts; experiment: Single dose radiotherapy in PC-3 tumor bearing SCID mice; assay type: in vivo; settings: up to 20 mCi/kg single dose
Excerpt: In vivo pre-clinical evaluation of single dose radiotherapy in human tumor bearing SCID mice. […] The xenograft model was produced by bilateral flank inoculation of 5×10^6 PC-3 cells per site. […] Baseline weights, hematology profiles, and tumor measurements were obtained immediately prior to therapy administration. Four groups of animals were utilized; a saline placebo, a 5 mCi/kg single dose, a 10 mCi/kg single dose, and a 20 mCi/kg single dose. Tumor measurements and weights were obtained twice weekly throughout the 14 weeks post injection.

[2] = target: T1, GRP receptors on Swiss 3T3 cells (Mus musculus, UniProt P21729); experiment: Competitive cell binding vs 125I-Tyr4-BBN, Swiss 3T3 cells
T1 construct: endogenous in cells; host or cells: Swiss 3T3 mouse fibroblasts (whole cells)
Protocol: The binding affinities of the synthetic BBN derivatives were assessed for GRP receptors on Swiss 3T3 cells and, in some cases, on a variety of human cancer cell lines, that express GRP receptors. […] The cell binding assay methods used to measure the IC50's is standard and used techniques previously reported [Jensen et al., 1993; Cai et al., 1994; Cai et al., 1992]. The methods used for determining IC50's for all GRP receptor binding compounds on all cell lines was similar. The specific method used to measure IC50's on Swiss 3T3 cells is briefly described as follows:
(§1) Swiss 3T3 mouse fibroblasts are grown to confluence in 48 well microtiter plates. […] The growth media was removed, the cells were washed twice with incubation media, and incubation media was returned to the cells. ^125I-Tyr4-BBN (0.01 uCi) was added to each well in the presence of increasing concentrations of the appropriate competitive peptide. Typical concentrations of displacing peptide ranged from 10-12 to 10-5 moles of displacing ligand per well. The cells were incubated at 37° C. for forty minutes in a 95% […]/5% CO2 humidified environment. At forty minutes post initiation of the incubation, the medium was discarded, and the cells were washed twice with cold incubation media. The cells were harvested from the wells following incubation in a trypsin/EDTA solution for five minutes at 37° C. Subsequently, the radioactivity, per well, was determined and the maximum % total uptake of the radiolabeled peptide was determined and normalized to 100%.
The binding affinities of the synthetic BBN derivatives were assessed for GRP receptors on Swiss 3T3 cells, PC-3 cells and CF PAC-1 cells. The IC50's of each of derivative were determined relative to (i.e., in competition with) ^125I-Tyr^4-BBN. The cell binding assay methods used to measure the IC50's is standard and was used by techniques previously reported [Jensen et al., 1993; Cai et al., 1992; Cai et al., 1994]. The methods used for determining IC50's with all BBN analogue binding to GRP receptors present on all three cell lines were similar. The specific method used to measure IC50's on Swiss 3T3 cells, is briefly described as follows:
as §1, with “microliter” for “microtiter”, “^125I-Tyr^4-BBN” for “^125I-Tyr4-BBN”, “μCi)” for “uCi)”, “10^−12” for “10-12”, “10^−5” for “10-5”, “100%. A similar procedure was used in performing cell binding assays with both the PC-3 and CFa-PAC-1 human cancer cell lines.” for “100%.”

Swiss 3T3 cells = experiment: Internalization and efflux, Swiss 3T3 cells; assay type: cell-based, mouse; settings: sixty minutes / one hour post-washing
Protocol: After establishment of equilibrium after a forty minute incubation, the media surrounding the cells was removed and the cells were washed with fresh media containing no radioactivity. […] The cells were then incubated in a 0.2M acetic acid solution (pH 2.5) which caused the surface proteins (incl., GRP receptors) to denature and release all surface bound radioactive materials. After removing this buffer and washing, the cells were counted again.
To determine intracellular retention, a similar method was employed. […] FIG. 12 is a graph of results of efflux experiments using Swiss 3T3 cells with ^125I-Lys^3-BBN.

T1 sequence (P21729 whole entry): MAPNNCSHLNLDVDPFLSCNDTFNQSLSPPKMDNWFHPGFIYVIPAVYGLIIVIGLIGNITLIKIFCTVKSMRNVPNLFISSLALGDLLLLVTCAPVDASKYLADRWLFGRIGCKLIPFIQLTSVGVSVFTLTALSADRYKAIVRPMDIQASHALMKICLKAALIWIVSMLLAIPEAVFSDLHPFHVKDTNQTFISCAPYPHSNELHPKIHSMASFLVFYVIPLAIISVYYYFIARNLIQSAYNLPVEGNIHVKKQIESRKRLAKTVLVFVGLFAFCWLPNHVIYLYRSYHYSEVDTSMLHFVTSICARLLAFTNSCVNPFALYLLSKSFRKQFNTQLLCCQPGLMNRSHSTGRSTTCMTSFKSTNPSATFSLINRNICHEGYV

SMILES: CSCC[C@H](NC(=O)[C@H](CC(C)C)NC(=O)[C@H](Cc1cnc[nH]1)NC(=O)CNC(=O)[C@@H](NC(=O)[C@H](C)NC(=O)[C@H](Cc1c[nH]c2ccccc12)NC(=O)[C@H](CCC(N)=O)NC(=O)CCCCCCCNC(=O)CN1CCN(CC(=O)O)CCN(CC(=O)O)CCN(CC(=O)O)CC1)C(C)C)C(N)=O [90Y-DOTA-8-Aoc-BBN[7-14]NH2, metal not drawn]
- tissue uptake dose at 4 h (in vivo; 4 hrs): 0.01 ± 0.01 %ID
- tissue uptake dose at 48 h (in vivo; 48 hrs): 0.01 ± 0.02 %ID
- tissue uptake dose at 72 h (in vivo; 72 hrs): 0.01 ± 0.02 %ID
- tolerability of radiation doses [1]: well tolerated

SMILES: CC(C)C[C@H](NC(=O)[C@H](Cc1c[nH]cn1)NC(=O)CNC(=O)[C@@H](NC(=O)[C@H](C)NC(=O)[C@H](Cc1c[nH]c2ccccc12)NC(=O)[C@H](CCC(N)=O)NC(=O)CCCCNC(=O)COC1CSCCCSCCCSCCCSC1)C(C)C)C(N)=O [105Rh-BBN-61]
- IC50 [2]: 4.1 nM
- activity remaining associated with the cells (Swiss 3T3 cells): less than 10%
